Results: PMC10189049

Target: TCR Vβ3.1 on CH7C17 Jurkat cells
Assay: fluorescence microscopy of labelled protein on cells

Question: With “Staphylococcal Enterotoxin B (from UniProt P01552 28-266) (natural protein)” as the substance, how does the MFI at 5 minutes read?
Answer: The MFI at 5 minutes was 427.
